Laboratory results reported in patent publication US20200199214A1 (Hoffmann-La Roche, published 2020).
Residue numbers refer to the chain shown, from its start.

T1: Human VEGF121-His (human, UniProt P15692-9 27-147)
T1 construct: not shown: His tag
T1 sequence (looked up): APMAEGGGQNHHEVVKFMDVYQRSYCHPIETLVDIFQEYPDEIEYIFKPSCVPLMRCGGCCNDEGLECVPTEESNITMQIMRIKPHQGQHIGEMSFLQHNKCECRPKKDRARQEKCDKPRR

T2: cynomolgus IL-1 beta (Sino Biological 90010-CNAE) (cynomolgus, UniProt P79182 117-268)
T2 sequence (looked up): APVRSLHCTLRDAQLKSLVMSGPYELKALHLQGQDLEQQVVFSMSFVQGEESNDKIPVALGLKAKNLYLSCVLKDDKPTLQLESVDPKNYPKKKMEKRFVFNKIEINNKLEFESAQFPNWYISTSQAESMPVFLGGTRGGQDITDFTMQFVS

T3: human VEGF121 (human, UniProt P15692-9 27-147)
T3 construct: No tag is stated for these preparations; Kept apart from VEGF121-His; also called HuVEGF121
T3 sequence (looked up): T1 sequence (looked up)

B1: bispecific anti-VEGF/anti-IL-1beta Fab fragment 1HVL5.15 (Fab, V domains shown)
VH: DETLVESGGGLVKPGGSLRLSCAAEGMVFKWNDMSWVRQAPGKGLEWVGSISKKGDHKYLNTKFIGRFTISRDNEKDTLYLQMNSLRAEDTAVYYCAKDVGFFDIWGQGTLVTVSS
VL: AIYMHQEPSSLSASVGDRVTITCHGSYWLSSLMAWYQQKPGKAPKLLIYDAKYKHLGVPSRFSGSGSHEDYTLTISSLQPEDFATYYCQQYRYHPYTFGHGTKVEIKR
B2: bispecific anti-VEGF/anti-IL-1beta Fab fragment 1HVL12.85 (Fab, V domains shown)
VH: B1 VH with T3Q
VL: B1 VL with M33V, G66K, S67E, H68D, E69Q, D70E, Y71F
B3: bispecific anti-VEGF/anti-IL-1beta Fab fragment 1HVL2.3 (Fab, V domains shown)
VH: EQLVESGGGLVKPGGSLRLSCAASGMVFSWNAMSWVRQAPGKGLEWVGSISPKGDHKYLNTKFIGRFTISRDNSKNTLYLQMNSLRAEDTAVYYCAKDIGFFDVWGQGTLVTVSS
VL: B1 VL with S31N, L32Y, M33L, K52S, K54R, H55I, L56I
notes: First expressed in E. coli TG1, later in HEK293

Assays:
Human VEGF121-His [1] = target: T1, Human VEGF121-His; assay: SPR, VEGF121-His captured via anti-His antibody, Fab injected, single cycle kinetics, 1:1 Langmuir fit
Description: (§1) An anti-His capturing antibody (GE Healthcare 28995056) was immobilized to a Series S Sensor Chip C1 (GE Healthcare 29104990) using standard amine coupling chemistry resulting in a surface density of approximately 500 resonance units (RU). As running and dilution buffer, HBS-P+(10 mM HEPES, 150 mM NaCl pH 7.4, 0.05% Surfactant P20) was used. Human VEGF121-His was captured to the surface with resulting ligand densities of approximately 10 and 20 RU, respectively. A dilution series of the bispecific anti-VEGF/anti-IL-1beta Fab fragment (1.2-100 nM, 1:3 dilution) was successively injected for 90 s each, dissociation was monitored for 3600 s at a flow rate of 30 μl/min (single cycle kinetics). The surface was regenerated by injecting 10 mM Glycine pH 1.5 for 60 s. Bulk refractive index differences were corrected by subtracting blank injections and by subtracting the response obtained from the control flow cell without captured human VEGF121. Curve fitting was performed using the 1:1 Langmuir binding model within the Biacore evaluation software. To provide more robust fitting, the Multiple Rmax option was chosen for global fitting using both ligand densities.
(§2) Binding kinetics to VEGF and IL-1beta for the candidate antibodies were assessed as described in Example 3 using the indicated bispecific anti-VEGF/anti-IL-1beta Fab fragments (amino acid sequence as illustrated in Table 3). For comparison, antigen binding kinetics of prior art anti-VEGF/anti-IL-1beta antibody 0032, a full length IgG antibody, as disclosed in WO2016/075034 are depicted.

[2] = target: T2, cynomolgus IL-1 beta (Sino Biological …); assay: SPR, Fab captured via anti-Fab antibody, cynomolgus IL-1beta injected, 1:1 Langmuir fit
Description: (§3) An anti-Fab capturing antibody (GE Healthcare 28958325) was immobilized to a Series S Sensor Chip C1 (GE Healthcare 29104990) using standard amine coupling chemistry resulting in a surface density of approximately 500 resonance units (RU). The bispecific anti-VEGF/anti-IL-1beta Fab fragment was captured to the surface with resulting capture levels of approximately 20 RU. A dilution series ranging from 0.74 to 60 nM (1:3 dilution) of either human IL-1 beta (PeproTech 200-01B) or cynomolgus IL-1 beta (Sino Biological 90010-CNAE) was injected for 90 s, dissociation was monitored for at least 600 s at a flow rate of 30 μl/min. The surface was regenerated by two consecutive injections of 10 mM Glycine pH 2.1 for 60 s each. Bulk refractive index differences were corrected by subtracting blank injections and by subtracting the response obtained from the control flow cell without captured bispecific anti-VEGF/anti-IL-1beta Fab fragment. Curve fitting was performed using the 1:1 Langmuir binding model within the Biacore evaluation software.
as §2

[3] = target: T4, human IL-1 beta (PeproTech 200-01B) (human, UniProt P01584 117-269); assay: SPR, Fab captured via anti-Fab antibody, human IL-1beta injected, 1:1 Langmuir fit
T4 construct: As printed it covers only the N-terminal part of the precursor, so it was not used; also called huIL-1 beta; IL1β
Description: as §3, §2

[4] = target: T4, human IL-1 beta (PeproTech 200-01B); assay: SPR, Fab captured via anti-Fab antibody, human IL-1beta injected, 1:1 Langmuir fit; n = 4
Description: as §3
Binding kinetics to VEGF and IL-1beta for the candidate antibodies were assessed as described in Example 3 using the indicated bispecific anti-VEGF/anti-IL-1beta Fab fragments (amino acid sequence as illustrated in Table 3). […]

VEGF165 = target: T5, VEGF165 (UniProt P15692-4 27-191); assay: competition ELISA: Fab preincubated with VEGF165, free VEGF165 bound to coated rhVEGFR-1-Fc detected; sheet title 'Competition ELISA VEGFR1-Fc, 8 pM VEGF165'
T5 construct: also called VEGF165 (Humanzyme, HZ-1153)
Description: (§4) 96-well-Plates (Maxisorp Nunc-Immoplates) were coated with 50 μL/well rhVEGFR-1-Fc (R&D #321-FL-050) at a final concentration of 1 μg/ml in 200 mM NaHC0₃, pH 9.4 for 1 hour at room temperature.
(§5) Meanwhile, antibody Fab fragments of different concentrations were preincubated with VEGF for form an antibody Fab-VEGF premix as follows: A dilution series of antibody Fab fragment was prepared by adding 280 μl of a solution of antibody Fab fragments (409.6 nM antibody in PBST-1% BSA) into the wells of the first column of a round bottom 96-well PS plate. The individual wells of columns 2-12 of the same plate were filled with 140 μl PBST-1% BSA. Subsequently, 1:2 dilutions were performed by transferring 140 μl of the antibody solution into the next column, thorough mixing and proceed with transferring 140 μl of this diluted antibody solution to the next column. This is repeated until column 11. Excess of 140 μl were discarded so that all wells comprise 140 μl. Column 12 served as the control (blank). […] 50 μl of the dilution series of the respective antibody Fab fragment were added to the VEGF121, or VEGF165, respectively; mixed thoroughly and incubated for 1.5 hours at room temperature.
(§6) The rhVEGFR-1-Fc coated plates were washed two times with PBST and blocked for 45 min with 200 μl of 2% MPBST. After washing off the MPBST solution twice with PBST, 50 μl of the antibody Fab-VEGF premix were added to the plate and incubated for 1.5 hours at room temperature. Subsequently, the plates were washed twice with PBST. Then, 50 μl of a solution comprising biotinylated anti-VEGF antibody (R&D, BAF293; 1:2000 dilution in PBST) and SA-HRP (KPL, 14-30-00; 1:2000 dilution in PBST) was added and incubated for 30 min at room temperature. After 6× washing with PBST, 50 μl of TMB substrate solution (two-component HRP substrate (KPL, 34021); used at room temperature) was added and incubated for 30 min at room temperature. 50 μl of 1N H₂SO₄ was added and absorbance was read at 450 nm.

human VEGF121 = target: T3, human VEGF121; assay: competition ELISA: Fab preincubated with VEGF121, free VEGF121 bound to coated rhVEGFR-1-Fc detected; sheet title 'Competition ELISA VEGFR1-Fc, 8 pM VEGF121'
Description: as §4, §5, §6

[5] = target: T4, human IL-1 beta (PeproTech 200-01B); assay: SPR, Fab captured via anti-Fab antibody, IL-1beta injected 0.74-60 nM, 1:1 Langmuir fit
Description: as §3, §2

Human VEGF121-His [6] = target: T1, Human VEGF121-His; assay: SPR, VEGF121-His captured via anti-His antibody, Fab injected, single cycle kinetics, 1:1 Langmuir fit (same values as Table 1)
Description: as §1, §2

Human VEGF121-His [7] = target: T1, Human VEGF121-His; assay: SPR, VEGF121-His captured via anti-His antibody, Fab injected 1.2-100 nM, single cycle kinetics, 1:1 Langmuir fit
Description: as §1, §2

[8] = target: T4, human IL-1 beta (PeproTech 200-01B); assay: SPR, Fab captured via anti-Fab antibody, human IL-1beta injected, 1:1 Langmuir fit (same values as Table 1)
Description: as §3, §2

Row | Binder | Kd (Human VEGF121-His [1]) [pM] | koff (Human VEGF121-His [1]) [s⁻¹] | kon (Human VEGF121-His [1]) [M⁻¹ s⁻¹] | t½ (Human VEGF121-His [1]) [h] | Kd [2] [pM] | koff [2] [s⁻¹] | kon [2] [M⁻¹ s⁻¹] | t½ [2] [h] | koff [3] [s⁻¹] | kon [3] [M⁻¹ s⁻¹] | IC50 (read off the curve) (VEGF165) [pM] | IC50 (read off the curve) (human VEGF121) [pM] | also measured
1 | B1 | 10 | 1.47e-05 | 1.53e+06 | 13.2 | 45 | 0.000118 | 2.6e+06 | 1.63 | 0.000107 | 1.66e+06 |  |  | Kd [4]: 59 pM; t 1/2 [4]: 1.82 h
2 | B2 | 6 | 1.51e-05 | 2.5e+06 | 12.7 | 20 | 6.54e-05 | 3.34e+06 | 2.95 | 0.000135 | 4.76e+06 | ~90 | ~40 | Kd [3]: 28 pM; t 1/2 [3]: 1.43 h
3 | B3 |  |  |  |  | 5790 | 0.0182 | 3.14e+06 | 0.01 |  |  | ~200 | ~80 | Kd [5]: 4560 pM; koff [5]: 0.0256 s⁻¹; kon [5]: 5.61e+06 M⁻¹ s⁻¹; t 1/2 [5]: 30 s; Kd (Human VEGF121-His [6]): 8 pM; koff (Human VEGF121-His [6]): 1.45e-05 s⁻¹; kon (Human VEGF121-His [6]): 1.75e+06 M⁻¹ s⁻¹; t½ (Human VEGF121-His [6]): 13.3 h; Kd (Human VEGF121-His [7]): 8 pM; koff (Human VEGF121-His [7]): 1.45e-05 s⁻¹; kon (Human VEGF121-His [7]): 1.75e+06 M⁻¹ s⁻¹; t 1/2 (Human VEGF121-His [7]): 13.3 h; Kd [8]: 4560 pM; koff [8]: 0.0256 s⁻¹; kon [8]: 5.61e+06 M⁻¹ s⁻¹; t 1/2 [8]: 30 s
